We go through two substances from paper PMC9882595.

For the experiment, the target named is Filamentous actin (F-actin) (rabbit) (UniProt P68135). Description: co-sedimentation; high speed actin binding co-sedimentation: 10 uM Vt variant and 20 uM F-actin in actin polymerization buffer (10 mM Tris, 200 mM KCl, 10 mM imidazole, 2.5 mM MgCl2, 1 mM EGTA, 2 mM DTT, pH 7.5), room temperature 1 hr, 185,000 RCF for 60 min; fraction of Vt in the pellet by SDS-PAGE densitometry.

Regarding Vt E1021A (domain or fragment), the reduction of F-actin binding relative to WT Vt was found to be 2%.

Consider Vt E1015A (domain or fragment), for which the reduction of F-actin binding relative to WT Vt was 2%.
